{"source": "paper PMC1184220", "binders": {"B1": {"name": "VEGF-S2/VEGF-AS2 duplex (dsDNA)", "DNA 1": "CTTTTTTAATTTTAATATTTGTTATCATTTATTTATT", "DNA 2": "AATAAATAAATGATAACAAATATTAAAATTAAAAAAG"}, "B2": {"name": "T7tiar/T7 partial duplex template (mixed)", "DNA 1": "AAGATGAGAATAGTATTTTTTTTTTTTCGTATTGGAACAATATAAACAATACTATCCCTATAGTGAGTCGTATTA", "DNA 2": "TAATACGACTCACTATAGGG"}, "B3": {"name": "T7tiar full-length transcript (ssRNA)", "RNA": "GGGAUAGUAUUGUUUAUAUUGUUCCAAUACGAAAAAAAAAAAAUACUAUUCUCAUCUU"}}, "key": {"[1]": {"target": "T1, TIAR (TIAR-b, short isoform) (UniProt Q01085 1-375)", "T1 sequence": "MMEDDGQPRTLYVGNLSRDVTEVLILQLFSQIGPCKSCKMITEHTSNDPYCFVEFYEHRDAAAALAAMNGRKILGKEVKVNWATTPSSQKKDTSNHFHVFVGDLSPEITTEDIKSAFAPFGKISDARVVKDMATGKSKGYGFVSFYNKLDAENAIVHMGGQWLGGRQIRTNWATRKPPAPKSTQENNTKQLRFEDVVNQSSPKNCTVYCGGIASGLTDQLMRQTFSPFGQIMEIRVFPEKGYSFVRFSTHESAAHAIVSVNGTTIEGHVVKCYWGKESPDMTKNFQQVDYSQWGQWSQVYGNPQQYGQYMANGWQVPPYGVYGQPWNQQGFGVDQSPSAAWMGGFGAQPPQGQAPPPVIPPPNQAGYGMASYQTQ", "assay": "UV crosslinking"}, "[2]": {"target": "T1, TIAR (TIAR-b, short isoform)", "assay": "competition"}, "HuR": {"target": "HuR (UniProt Q15717 1-326)", "sequence (Q15717 whole entry)": "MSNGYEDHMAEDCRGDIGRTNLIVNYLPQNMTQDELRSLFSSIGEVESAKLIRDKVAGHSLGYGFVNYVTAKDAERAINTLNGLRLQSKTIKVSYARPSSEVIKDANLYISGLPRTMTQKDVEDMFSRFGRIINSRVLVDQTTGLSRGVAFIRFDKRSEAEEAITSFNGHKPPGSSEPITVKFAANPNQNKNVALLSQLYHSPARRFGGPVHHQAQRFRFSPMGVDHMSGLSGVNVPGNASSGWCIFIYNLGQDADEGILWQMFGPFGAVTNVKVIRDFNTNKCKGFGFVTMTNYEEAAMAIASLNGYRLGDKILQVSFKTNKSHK", "assay": "UV crosslinking"}, "TIAR RRM1": {"target": "T2, TIAR RRM1 (UniProt Q01085 2-93)", "T2 sequence": "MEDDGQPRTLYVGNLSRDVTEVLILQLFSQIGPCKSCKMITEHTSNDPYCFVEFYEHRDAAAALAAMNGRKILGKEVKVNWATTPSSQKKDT", "assay": "UV crosslinking titration"}, "TIA-1": {"target": "T3, TIA-1 (UniProt P31483 1-386)", "T3 sequence": "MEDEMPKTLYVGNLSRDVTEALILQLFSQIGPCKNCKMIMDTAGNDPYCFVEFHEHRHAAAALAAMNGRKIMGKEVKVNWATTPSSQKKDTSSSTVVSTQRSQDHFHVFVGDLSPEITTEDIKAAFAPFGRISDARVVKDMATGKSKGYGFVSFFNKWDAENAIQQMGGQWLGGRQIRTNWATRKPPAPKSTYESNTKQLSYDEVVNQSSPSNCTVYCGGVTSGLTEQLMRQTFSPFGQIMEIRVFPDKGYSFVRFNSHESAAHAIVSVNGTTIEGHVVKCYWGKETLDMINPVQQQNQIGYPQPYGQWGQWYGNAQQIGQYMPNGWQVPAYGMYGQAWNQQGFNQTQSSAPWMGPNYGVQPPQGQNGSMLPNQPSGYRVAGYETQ", "assay": "UV crosslinking"}, "[3]": {"target": "T1, TIAR (TIAR-b, short isoform)", "assay": "EMSA"}, "[4]": {"target": "T1, TIAR (TIAR-b, short isoform)", "assay": "UV crosslinking", "remark": "listed apart in the source"}, "[5]": {"target": "T1, TIAR (TIAR-b, short isoform)", "assay": "UV crosslinking + immunoprecipitation"}, "[6]": {"target": "T1, TIAR (TIAR-b, short isoform)", "assay": "UV crosslinking", "remark": "listed apart in the source"}, "TIAR RRM2,3": {"target": "T4, TIAR RRM2,3 (UniProt Q01085 94-375)", "T4 sequence": "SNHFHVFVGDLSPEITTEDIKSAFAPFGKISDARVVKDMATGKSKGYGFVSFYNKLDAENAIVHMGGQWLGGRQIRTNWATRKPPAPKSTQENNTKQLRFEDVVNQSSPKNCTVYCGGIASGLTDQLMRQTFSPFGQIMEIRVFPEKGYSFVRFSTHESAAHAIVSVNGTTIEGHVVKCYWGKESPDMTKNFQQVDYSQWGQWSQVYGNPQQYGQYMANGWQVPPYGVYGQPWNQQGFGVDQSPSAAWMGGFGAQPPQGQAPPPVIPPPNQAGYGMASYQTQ", "assay": "UV crosslinking titration"}}, "data": [{"binder": "CTTTTTTAATTTTAATATTTGTTATCATTTATTTATT (ssDNA)", "note": "[VEGF-S2]", "values": [{"measurement": "binding result", "setting": "[1]", "value": "binds"}]}, {"binder": "AAAATGCTTTTTTT (ssDNA)", "note": "[VEGF-AS1b.2]", "values": [{"measurement": "binding result", "setting": "[2]", "value": "no binding"}]}, {"binder": "AATAAATAAATGATAACAAATATTAAAATTAAAAAAG (ssDNA)", "note": "[VEGF-AS2]", "values": [{"measurement": "binding result", "setting": "HuR", "value": "no binding"}, {"measurement": "binding result", "setting": "TIAR RRM1", "value": "no binding"}, {"measurement": "binding result", "setting": "TIA-1", "value": "no binding"}, {"measurement": "binding result", "setting": "[3]", "value": "no binding"}]}, {"binder": "B1", "values": [{"measurement": "binding result", "setting": "[4]", "value": "no binding"}]}, {"binder": "B2", "values": [{"measurement": "binding result", "setting": "[5]", "value": "binds"}]}, {"binder": "TTAATATCTAAAATAAAATAAATT (ssDNA)", "note": "[IL8-AS1]", "values": [{"measurement": "binding result", "setting": "[6]", "value": "no binding"}]}, {"binder": "B3", "values": [{"measurement": "binding result", "setting": "[1]", "value": "binds"}]}, {"binder": "AAAATGCTTTTTTTTTTTTA (ssDNA)", "note": "[VEGF-AS1b]", "values": [{"measurement": "binding result", "setting": "[6]", "value": "binds"}]}, {"binder": "TTTTTTTTTTTTTTT (ssDNA)", "note": "[oligo(dT)15]", "values": [{"measurement": "binding result", "setting": "[6]", "value": "binds"}]}, {"binder": "AAAAUGCUUUUUUUUUUUUA (ssRNA)", "note": "[rVEGF-AS1]", "values": [{"measurement": "binding result", "setting": "TIAR RRM1", "value": "no binding"}, {"measurement": "binding result", "setting": "TIA-1", "value": "binds"}]}, {"binder": "TAAAAATAAATATGTACTACGGAATATCTCGAAAAAC (ssDNA)", "note": "[VEGF-AS4]", "values": [{"measurement": "binding result", "setting": "[6]", "value": "no binding"}]}, {"binder": "AGAATTAAATTCTTTAATACAAAATGCTTTTTTTTTTTTA (ssDNA)", "note": "[VEGF-AS1]", "values": [{"measurement": "Kd", "setting": "TIAR RRM2,3", "value": 3, "unit": "nM"}, {"measurement": "binding result", "setting": "HuR", "value": "no binding"}, {"measurement": "binding result", "setting": "TIA-1", "value": "binds"}]}]}
